experiment: soluble on expression in E. coli; label from the status in PepcDB or PDB records

| Sequence | soluble on expression in E. coli |
| --- | --- |
| MNTGHHKVADTLIDFLHRQFPWVESKKIDFLSYCNELMEKMVSGAYLRWIRSHPASYHRVYKTFMYEESLRLEFVSFEPWLPYFEGKMKKMLEQERPDLIVCTHSFPSRILQQLKRKKVLAIPVVNVYTDFFMNSIWGKRFIDYHFVPHQEAKRELIVKHGIDERRIVVTGIPAAALEHHHHHH | soluble |
| MDLDQLDLNPRITAAVKRGRLKSVKEILCYSGPDLQRLTGLPSHDVQCLLRAASLHLRGSRVLSALHLFQQKESFPEQHQRLSLGCPVLDQFLGGGLPLEGITGLAGCSSAGKTQLALQLCLAVQFPRQYGGLEAGAVYICTEDAFPSKRLWQLIAQQRRLRTDAPEELIEKIRFSNHIFIEHAADVPHFVVSSTFRPQPSGRSSCSRWGPHCED | soluble |
| LPELSLEELIRMHDHICFLKSLGYTDYQKHLKKSKVLIVGLGKLGANIAYNLCNVGVGSVILFDRTFISPTEISDIYTKDAIGMKKADYLRKKLTSIFPEIEVQNLPDTINISNYLNDSDFDIIIVNSEHFNIKLLSELNDLLYKISTPYMYAWIEGSRGYIGPLIYPPDTSCFNCYLTWRFFGTFMEDKIKAINNYGSSGYIFPLDKIIGALTVLEVCKAIGSLGTPLFNKIILVEVLPTLTIRYIPILKDPKCNVCEG | not soluble |
| EVQLQESGPSLVKPSQTLSLTCSVTGEPITSGFWDWIRKFPGNKLEFMGYIRYGGGTYYNPSLKSPISITRDTSKNHYYLQLNSVVTEDTATYYCARSRDYYGSSGFAFWGEGTLVTVSAAKTTPPSVYPLAPGCGDTTGSSVTLGCLVKGYFPESVTVTWNSGSLSSSVHTFPALLQSGLYTMSSSVTVPSSTWPSQTVTCSVAHPASSTTVDKKLE | soluble |
| METKQSMDYIIKGPGGTTKPIAPKLITVNPLNIIIESNSGQIDKTLELKNIYPCRIAFRVRTNGPTRYTVCPSKGFLSNGEKVAIQITLIDGTKYQSNHQFIVQAMPSPGDFADRKFIWKQPNFLGIFTNTRVKTMRPAQSLPKSNPKSPAKVSTPTDSGMSSPVASSESLVTPSVPSWSKSPSSPIDHGKFAENINDLSVQVKKAIDEKNTRTSEMVSVVNQIKAVEVDLDRQAQLVNELSERVKRGEIQYSNLVMHERSLRVELGRLKNNEAESIGQ | not soluble |
| MERAGICHSDGFDLAYRIEGEGAPILVIGSAAYYPRLFSSDIKQKYQWVFVDHRGFAKPKRELRAEDSRLDAVLADIERMRTFLQLEDVTTLGHSGHAFMALEYARTYPKQVRKVALFNTAPDNSEERQRKSESFFMETASLERKKRFEKDIENLPQDIDKDPERRFVHMCIRAEAKSFYQERPHAAALWDGVFTNMPIIDELWGNTFARIDLLQRLADVRMPVYIGLGRYDYLVAPVSLWDAVDGLYPHVDKVIFEKSGHQPMLEEPEAFDQSFRKWLDQ | not soluble |
| MGSDKIHHHHHHMQKKGNKYGTHRVLAPQGVLPQPAEKVDNNMDEIYDNEILIDVKTLNIDSASFTQIHEQAGGDKAKIAEIMLGIVAKQGKHRNPVTGSGGMLLGVVEKIGDALKDKIDLKVGDKIATLVSLSLTPLRIDKIKEIRPDVDQVDIEGKAILFESGIYAKIPNDLPEKLALSALDVAGAPAQTAKLVKPGDTVLIIGAGGKSGMLCCYEAKKRAGVTGKVIGLCHSQKSTDRLKALGFCDHVFSADATKPVPVMEEIEKLTNGEMCDVTINNVNITDTEMTSILCTKNDGIVYFFSMATSFTKAALGAEGVGSDVTMIVGNGYTKGHAEITLQELRECEALRKVFTELYA | not soluble |
| MNAKKRKGSAVERNIVSRLRDKGFAVVRAPASGSKRKDPIPDIIALKNGVIILIEMKSRKDIEGKIYVRREQAEGIIEFARKSGGSLFLGVKKPGVLKFIPFEKLRRTETGNYVADSEIEGLDLEDLVRLVEAKISRTLDNFL | soluble |
| ELGIKRESKLEFKLWYDDEKTPEALVFVVQGMGDDISSIQYVGDYMVRQFNTAVVGVNYHCIGNRPQTGSSFFMDDIDKLILKASCEAADIKLPYDVDKIQDYKAMSEIFHFVNNQIVEGKQKGNFTPNYFLNLHVSLQPTKNEYQNFGIMQAQDLLNVALYLKKHAPFDTMGGGIPIIMIGGSHGGYLAHLAAKIAPWLVDGVLDNSAYAKFLWRVVGFGKEIDFMQYSEFATFDFFHHIKTHCSTKTFWTSNSSSPRFFSPARRKIRNLLEEDHLLKQSKCLKTCFISYHSLYDEYVSLKEKTMFYEELEKLGFDVTLHSIT | not soluble |
| MGSDKIHHHHHHMLTYTVYSEAGGVGKTTMAANLAVADARAGHDVLAIDMDPQEGSLSFLFDVADHRTDSEADSLVRHLVERPRGPFSDLIETSEGVDVLPAHNSLEVLSKHLRRREEEAADFGENWNPNVQLLRVLKDAGVPSEYDTVIIDPPATADVKLYNALHATRNLVIPFEPSGKGQQSVAGLADLVTGLEDTLDINVGVLAAVPNRFKGTNDQEEMLKRLQAESYDIPVVFRERTSLLEGCWRKQCSAFKYIEEHRSRERDYEIETLEQFEELAAHLRQTREQEATA | not soluble |
| MSTETDSILAAFEKFNTIIIHRHINPDPDAIGSQTGLALLLRAAYPAKTIYTAGPAAPDLAWIGPQQQVSAEAYTGALVVVIDTSNRERIAGDHFDQGAMLIKIDHHLDEDQLGTINWVDTHASSASEMVWDLVRHSPQLQLTKAAATALYAGIIGDTGRFLYDLTTARTHQAAADLLATGIDAAAIGRQEDQFPENVGRLIGWALENVKITDTGAGSLLITKAVLAQFGLAYGEEQRAVGNIGKLASIDRWVVFTERTDGSYRVELRGKTKEINTLAVQHGGGGHPLASGAVADNAAELHAIEEELASLLEHHHHHH | soluble |
| MTDIGAPVTVQVAVDPPYPVVIGTGLLDELEDLLADRHKVAVVHQPGLAETAEEIRKRLAGKGVDAHRIEIPDAEAGKDLPVVGFIWEVLGRIGIGRKDALVSLGGGAATDVAGFAAATWLRGVSIVHLPTTLLGMVDAAVGGKTGINTDAGKNLVGAFHQPLAVLVDLATLQTLPRDEMICGMAEVVKAGFIADPVILDLIEADPQAALDPAGDVLPELIRRAITVKAEVVAADEKESELREILNYGHTLGHAIERRERYRWRHGAAVSVGLVFAAELARLAGRLDDATAQRHRTILSSLGLPVSYDPDALPQLLEIMAGDKKTRAGVLRFVVLDGLAKPGRMVGPDPGLLVTAYAGVCAP | not soluble |
| MGSDKIHHHHHHMKKLVATAPRVAELVEYHDREVVEDEVKIKVQFASPKHGTEVVDFRGISPFIDEEFSPEWNLFVSRETNSARGIVFGEFQLGNMVVGEVVECGSKVTEYALGDIVCSYGPIMETVIVKAVDNYKLRKLPKGANWKNAVCYDPAQFAMSGVRDAHVRAGDYVVVVGLGAIGQIAIQLAKKAGASVVIGVDPLSHRREIAEKHGADATFDPITTDVGLEVKRLTGKLGADSIIETSGNAAALQAALRGIAYGGTISYVAFAKPFPEGFNLGREAHFNNAKIVFSRAASEPNPDYPRWDRKRIEETCWELLMNGYLDCTDIIDPVVPFADSAESYMKYVDQQPDLSIKMGITL | not soluble |
| MSSSSGNQNSKEHKVAVTHDLGKTNVPEHPKRVVVLELGFIDTLLDLGITPVGVADDNKAKQLINKDVLKKIDGYTSVGTRSQPSMEKIASLKPDLIIADTTRHKKVYDQLKKIAPTIALNNLNADYQDTIDASLTIAKAVGKEKEMEKKLTAHEEKLSETKQKISANSQSVLLIGNTNDTIMARDENFFTSRLLTQVGYRYAISTSGNSDSSNGGDSVNMKMTLEQLLKTDPDVIILMTGKTDDLDADGKRPIEKNVLWKKLKAVKNGHVYHVDRAVWSLRRSVDGANAILDELQKEMPAAKKLEHHHHHH | not soluble |
| MNVLRPTLLTLACLLASPGFADDLPSLGDASSAIVSPQQEYQLGRAWLALLRSQVSQLNDPQLKDYVETSVYKLVETSQVNDRRLEFILINSPQLNAFAAPGGIIGVNGGLFLNAQTEGEYASVLAHELAHLSQRHFARGVEAQQRMQVPMMAALLAGIVIAAAGAGDAGIATIAGTQAAAIQEQRRFSRQNEQEADRIGILNLEKAGYDPRSMPTMFERLMRQYRFDAKPPEFLLTHPVTESRIADTRNRAEQARQGGTEDSLRYQLIRARVQLTYEESPGLAAKRFRAQLDENPKNDIARYGLAIAQIKGSQWNEARENLKPLLAKSPNDVTYNLAQIELDMANSRLPDAQTRVERMLNLYPGNYPLNQIRVDLLLKQNRPADAEKALEGLLKSRPDDPDVWYLVAETRGLSGNIIGLHQARAEYFALVGDYRQAIQQLDFAKRRAGSNFPLSSRIDARQREMMDQEQMVKDMMRLEHHHHHH | soluble |
| MKIYLVGGAVRDALLGLPVKDKDWVVVGATPQEMLDAGYQQVGRDFPVFLHPQTHEEYALARTERKSGSGYTGFTCYAAPDVTLEADLQRRDLTINALARDDAGQIIDPYHGRRDLEARLLRHVSPAFGEDPLRVLRVARFAARYAHLSFRIADETLALMREMTAAGELEHLTPERVWKETENALTTRNPQVYFQVLRDCGALRVLFPEIDALFGVPAPAKWHPEIDTGVHTLMTLSMAAMLSPQLDVRFATLCHDLGKGLTPKNLWPRHHGHGPAGVKLVEQLCQRLRVPNDLRDLAKLVAEYHDLIHTFPILQPKTIVKLFDAIDAWRKPQRVEQIALTSEADVRGRTGFEASDYPQGRWLREAWQVAQAVPTKEVVEAGFKGIEIREELTKRRIAAVANWKEKRCPNPAS | not soluble |
| MKFTSATGSGQQGSSSGTTNSAGNPDSLKQDKVDKSGDSVTVAETTSGDNLTNYTNLPPNLTPTADPNALSFTNKNNAQRAQLFLRALLGSIPVLVNKSGQDDLEHHHHHH | not soluble |
| MSAPAAAPKHPGKVFLDPSEVADHLAEYRIVDCRYSLKIKDHGSIQYAKEHVKSAIRADVDTNLSKLVPTSTARHPLPPCAEFIDWCMANGMAGELPVLCYDDECGAMGGCRLWWMLNSLGADAYVINGGFQACKAAGLEMESGEPSSLPRPATHWPFKTAFQHHYLVDEIPPQAIITDARSADRFASTVRPYAADKMPGHIEGARNLPYTSHLVTRGDGKVLRSEEEIRHNIMTVVQGAGDAADLSSFVFSCGSGVTACINIALVHHLGLGHPYLYCGSWSEYSGLFRPPIMRSIIDDYGMCMQMQTPSLGDNPKANLDTMTLKVDGAPCERPDAEVQSAATHLHAGEAATVYFKSGRVVTIEVPVVPNLEA | soluble |
| MAHHHHHHMRKEEMNRNFQNASCKEDNYIKAWLKQTENPEFYKNLNDLDDQSYTNEFVKVVDFNNFNSNFINNMMEEPFGDEFSKQKKRKAYSLFYSNEIGPNNEENYDLKNIYTSFDDSDVKYLKSLDKTPSGNMKDRVKGRYKDEHMSIKKLKRENICNENNEPIFPNNIMMDNSPYYKFRHSNKKPSYGSESTNEFFNNYDFETPIKILSSKKKSYDFKNRKDNSTNTTKENSSRENVSSNNSETKRTINFSNKTDDFNDIPFNSDNEYISSPEYMDHEQNTKYINKKQREVNFLGQKLEYKVVGNVINCSKNHPQFTLF | not soluble |
| GMEYQLQQLASLTLVGIKETYENGRQAQQHIAGFWQRCYQEGVIADLQLKNNGDLAGILGLCIPELDGKMSYMIAVTGDNSADIAKYDVITLASSKYMVFEAQGAVPKAVQQKMEEVHHYIHQYQANTVKSAPFFELYQDGDTTSEKYITEIWMPVKG | soluble |
| MREEVKTVIKVKTVGDVPAIVSARKSITEGKVKDAIISGYRDVKNDYMRYFGIQQAPDEGERLFIVNTLKGLGIDLPEESIVDGKFIIDRISGMDLASTDPKVACFVKIAEFYLKYYEKAKYSDSVIEDDGEIIERLTGIYNYMDITKLYFKGDDAGVGT | not soluble |
| MGNIKVTRDDWLNVAMDVLVSDGVEQVKVMNLAERMAVSRSSFYWYFKSRQDLLDALLAKWQATNTAGLIAQTELPAQTITGAVCNLFHCVVDPALFDTALDFAVRDWARRSGKVRRLLDLSDSRRLEALTAMFLRYDYSQIEAETRARVLYYMQIGYDLAQMNEPIDQRLSFVRHYLFVFTGVQARDEEVAAFSAFARGFWEGRRP | not soluble |

— the DeepSol protein solubility set
